What was measured:
[1] = molecular target: T1, murine ENPP1 (Mus musculus, UniProt P06802); test: Cross reactivity of the antibody with murine ENPP1; format: binding; settings: antibody raised against human recombinant protein
T1 sequence (P06802 1-906): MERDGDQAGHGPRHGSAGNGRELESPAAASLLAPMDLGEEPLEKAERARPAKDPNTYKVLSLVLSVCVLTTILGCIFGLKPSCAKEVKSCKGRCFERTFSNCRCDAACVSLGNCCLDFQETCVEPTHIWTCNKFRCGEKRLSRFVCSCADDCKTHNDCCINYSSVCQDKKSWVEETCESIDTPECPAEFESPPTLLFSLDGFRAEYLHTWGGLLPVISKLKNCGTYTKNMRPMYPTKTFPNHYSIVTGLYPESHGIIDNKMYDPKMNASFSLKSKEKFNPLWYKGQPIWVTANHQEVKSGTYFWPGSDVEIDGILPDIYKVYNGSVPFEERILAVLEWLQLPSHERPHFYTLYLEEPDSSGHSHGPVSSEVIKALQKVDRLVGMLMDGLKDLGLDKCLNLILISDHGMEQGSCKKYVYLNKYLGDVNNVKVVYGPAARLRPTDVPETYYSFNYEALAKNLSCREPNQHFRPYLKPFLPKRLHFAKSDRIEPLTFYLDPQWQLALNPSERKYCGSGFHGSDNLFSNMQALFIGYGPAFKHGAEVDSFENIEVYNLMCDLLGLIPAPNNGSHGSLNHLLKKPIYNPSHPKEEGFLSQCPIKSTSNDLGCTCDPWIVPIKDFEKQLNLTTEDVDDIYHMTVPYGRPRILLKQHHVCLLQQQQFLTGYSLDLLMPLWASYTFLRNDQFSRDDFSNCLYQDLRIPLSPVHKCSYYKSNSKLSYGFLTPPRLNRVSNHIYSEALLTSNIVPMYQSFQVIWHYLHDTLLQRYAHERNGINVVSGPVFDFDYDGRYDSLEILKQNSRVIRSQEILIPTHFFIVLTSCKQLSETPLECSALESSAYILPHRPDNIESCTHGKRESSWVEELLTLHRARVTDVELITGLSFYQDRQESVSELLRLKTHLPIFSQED
Source text: The antibody was generated in collaboration with Lake Pharma using standard techniques of monoclonal antibody (mAb) generation, including immunization, collection and testing of hybridoma supernatants, cloning of hybridomas and further confirmation by multiple affinity assays followed by selection and production of the ENPP1mAb in a recombinant manner. […] The selected hybridoma has been sequenced and the recombinant monoclonal is produced on a CHO cell line with characterization by electropherogram and mass spectrometry. The molecular weight of the heavy chain is approximately 48 kD and the light chain 24 kD.

[2] = tested on: ENPP1 mediated cell death of cardiac fibroblasts; test: Co-culture of cardiac fibroblasts and cardiomyocytes with recombinant ENPP1 and ATP, cell death; format: cell-based; settings: for cell death and detachment of cardiac fibroblasts: images after 48 hours, versus IgG control, FIG. 18A
Procedure: FIG. 18A are exemplary micrographs showing ENPP1 mAb inhibits ENPP1 mediated cell death. Cardiac fibroblasts (green) were co-cultured with cardiomyocytes (red) followed by the addition of vehicle (panel A) or recombinant ENPP1 and ATP and IgG (panel B) or recombinant ENPP1 and ATP and 12-J-4 ENPP1mAb (panel C). Images were taken after 48 hours and show cell death and detachment of cardiac fibroblasts in the IgG control well (panel B).
FIG. 18B is an exemplary graph showing results of flow cytometry measuring cell death (PI+) from the assay performed in FIG. 18A.
Next, functional data was collected for the ENPP1 mAb using an in vitro functional assay. As shown in the previous examples, ENPP1 expression induced cardiomyocytes to release pro-inflammatory and pro-apoptotic molecules that induce cell death in a host of cell types in the injury region. To test the ENPP1 mAb, an in vitro functional assay was performed in which cardiac fibroblasts were incubated with cardiomyocytes followed by the addition of a vehicle, recombinant ENPP1 and ATP and IgG, or recombinant ENPP1 and ATP and 12-J-4 ENPP1mAb.

[3] = molecular target: T2, ENPP1 (Homo sapiens, UniProt P22413); test: Luciferase based ATP assay of ENPP1 inhibition; format: biochemical; settings: FIG. 17
T2 sequence (P22413 1-925): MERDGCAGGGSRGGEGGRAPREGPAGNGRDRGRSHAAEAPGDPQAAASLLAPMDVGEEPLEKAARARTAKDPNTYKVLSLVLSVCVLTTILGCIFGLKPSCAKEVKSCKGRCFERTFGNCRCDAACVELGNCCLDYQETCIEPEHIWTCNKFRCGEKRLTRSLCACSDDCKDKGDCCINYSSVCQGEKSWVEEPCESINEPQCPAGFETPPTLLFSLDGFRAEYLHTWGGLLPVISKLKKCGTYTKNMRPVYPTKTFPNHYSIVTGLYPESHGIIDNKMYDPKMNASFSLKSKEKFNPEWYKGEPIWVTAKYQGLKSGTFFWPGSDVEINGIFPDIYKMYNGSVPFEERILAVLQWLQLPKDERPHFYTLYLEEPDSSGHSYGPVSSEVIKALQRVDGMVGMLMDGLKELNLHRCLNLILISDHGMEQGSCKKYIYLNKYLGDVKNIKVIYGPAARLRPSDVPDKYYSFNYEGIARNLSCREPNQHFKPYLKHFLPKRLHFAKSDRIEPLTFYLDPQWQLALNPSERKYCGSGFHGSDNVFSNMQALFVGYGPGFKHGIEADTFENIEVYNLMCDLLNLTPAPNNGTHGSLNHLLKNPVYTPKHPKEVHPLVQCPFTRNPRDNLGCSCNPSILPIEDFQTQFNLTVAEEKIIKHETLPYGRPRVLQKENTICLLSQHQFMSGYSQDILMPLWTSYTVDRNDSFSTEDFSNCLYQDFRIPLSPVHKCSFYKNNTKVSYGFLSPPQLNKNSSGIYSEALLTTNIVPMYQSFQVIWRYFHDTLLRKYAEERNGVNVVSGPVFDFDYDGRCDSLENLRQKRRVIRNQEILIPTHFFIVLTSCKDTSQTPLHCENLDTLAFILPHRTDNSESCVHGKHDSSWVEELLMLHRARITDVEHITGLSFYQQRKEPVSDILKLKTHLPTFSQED
Procedure: FIG. 17 is an exemplary graph showing the effect of monoclonal Ab 12-J-4 in inhibiting ENPP1. In a luciferase based assay, ATP was incubated with luciferase in the presence or absence of ENPP1+/−the mAb or IgG control. In the absence of ENPP1, high luminescence signal is obtained.

[4] = molecular target: T2, ENPP1; test: Flow cytometry binding of ENPP1 mAb to HEK cells over-expressing full length ENPP1; parameters: HEK cells over-expressing full length ENPP1 were incubated with varying concentrations of ENPP1 mAb; expressed in transfected cells; host or cells: HEK cells; settings: compared among several clones obtained; FIG. 15
Procedure: FIG. 15 is an exemplary affinity binding curve of ENPP1 monoclonal antibody (mAb) targeting human ENPP1. HEK cells over-expressing full length ENPP1 were incubated with varying concentrations of ENPP1 mAb followed by flow cytometry to determine mean fluorescence intensity as a readout for binding. […] IgG at an identical concentration is used as a control.

- cross reactivity with murine ENPP1 [1]: significant cross reactivity
- luminescence signal when ENPP1 is added ([3]; ATP incubated with luciferase and ENPP1, compared to IgG): significantly higher
- inhibition of ENPP1 ([3]; at nanomolar concentrations): potently inhibits
- binding and inhibitory effects on ENPP1 activity [4]: most potent
B1: 12-J-4: Anti-ENPP1 monoclonal antibody, IgG1kappa, made recombinantly in CHO cells; CDRs SEQ ID NO: 1-6, VH SEQ ID NO: 7, VL SEQ ID NO: 9 (antibody, V domains shown)
VH: EVMLVESGGGLVKPGGSLKLSCVASGFTFSSYTMSWVRQTPEKRLEWVATISGGGGNTYYPDSVKGRFTISRDNAKNTLYLQMSSLRSEDTALYYCARRHYGSSPYAMDYWGQGTSVTVSS
VL: DIQMTQTTSSLSASLGDRVTISCRASQDISNYLNWYQQKPDGTVKLLIYHKTRLHSGVPSRFSGSGSGTDYSLTISNLEQEDIATYFCQQGNMLPWTFGGGTKLEIK
modifications: IgG1 kappa constant regions
- PI+ cells (cell death) by flow cytometry ([2]; FIG. 18B): significant reduction
- cell death and detachment of cardiac fibroblasts [2]: significantly abrogated cell death
- cell death and detachment of cardiac fibroblasts ([2]; listed as ENPP1mAb): significantly diminished
